B1: HDV Ribozyme (parent)
chain: GGCCGGCAUGGUCCCAGCCUCCUCGCUGGCGCCGGCUGGGCAACAUUCCGAGGGGACCGUCCCCUCGGUAAUGGCGAAUGGGACCCA

Variants of: B1
Assay: self-cleavage, relative activity (ratio to wild type); higher = more cleavage; co-transcriptional

Variant	self-cleavage
G17C A83G	0.131
G17C A83U	0.256
G17A C21U	0
G17A C48A	0.506
G17A C48G	0.46
G17A C48U	0.785
G17A G52U	0.728
A16U G40C	0.365
G17A U37A	0.0415
A16U G53U	0.985
G17C C63U	0.397
G17A G25A	0.117
G17C G35C	0.0437
A16U C44G	0.604
G17C A77U	0
G17C A77G	0.0615
G17A G34U	0.0346
G17C C44U	0.142
G17U A70U	0.574
G17U A51C	0.831
A16U G50A	0.933
G17A G68C	0.575
G17A C33U	0.566
G17C G82C	0.133

Variant	self-cleavage
G17A U23C	0.462
G17U A77U	0.104
G17U A77G	0.0536
A16U A70C	0.538
A16U A70G	0.855
G17C G40C	0
G17C A45U	0.107
G17A G31A	0.234
A16U G25C	0.32
A16U C24A	0.482
A16U C24G	0.237
G17C C33U	0.0475
A16U C86U	0.852
A16U A56U	1.15
G17A C19G	0
G17A C19A	0.142
A16U C61A	1.11
A16U G55C	0.98
G17A C58G	0.812
G17A U46C	0.506
G17A G29C	0.0405
G17A G29U	0.0767
A16U C62A	0.897
G17C A43C	0.119

Variant	self-cleavage
G17A G74A	0.132
G17C G29C	0.166
G17C A70C	0.0536
G17A C22U	0.194
G17A C22A	0.128
G17A G50A	0.76
G17C G74A	0.089
G17A G76U	0.863
G17A G76C	0.665
G17C U60C	0.208
G17A G35U	0.0906
G17C U23A	0.344
G17C C24G	0.0898
G17C C57U	0.256
G17A C75U	0.138
G17A C75A	0.128
G17A A70G	0.554
G17A A70C	0.449
G17U A83C	0.219
G17U A83G	0.405
G17A A42G	0.119
A16U G67U	0.975
A16U A51U	0.914
A16U U60G	1.15

Variant	self-cleavage
A16U U69A	0.911
A16U U69C	0.643
G17C C75U	0
G17C U27G	0.499
G17C U47A	0
G17C U47G	0.217
G17C U47C	0.519
G17A G54A	0.786
A16U G81A	0.813
G17A C41U	0.46
G17A C41A	0.47
A16U U79A	1.09
G17A C86A	0.538
G17C C32G	0
G17C C66G	0.32
A16U G73A	0.222
A16U G73C	0.437
G17A A56U	0.528
G17C G34C	0.0723
G17A G73A	0.34
G17A C30A	0.651
G17A G67A	0.501
G17A G40U	0.562
A16U C84A	0.665

Variant	self-cleavage
A16U C41G	0.401
A16U C41A	0.87
A16U G34U	0.128
A16U U23G	0.575
A16U U23A	0.739
G17C A56C	0.302
G17A C66A	0.748
G17C C41A	0.111
A16U U46G	0.437
A16U U46A	0.489
A16U U46C	1.21
A16U U65G	0.997
G17C G31C	0.0475
A16U U72C	0.569
G17C G76A	0.446
G17C G76C	0.499
G17C G76U	0.773
G17A G38A	0.104
G17C C48U	0.175
G17C G52U	0.363
G17C G52A	0.415
G17U A78G	0.201
G17U A56U	0.533
A16U C36U	0.631

Variant	self-cleavage
G17C G39U	0.108
G17C A51C	0.308
A16U G17A	0.712
G17C U20G	0.128
G17A C62U	0.554
G17C G54A	0.262
G17C G54U	0.256
A16U C26U	0.831
G17A C44G	0.268
G17C A71U	0.32
G17C A71G	0.475
G17A C26U	0.726
G17A C49U	0.853
G17A C49G	0.565
G17A C36G	0.0475
A16U G38U	0.253
A16U G38A	0.113
G17A G53U	0.718
G17C U46A	0.237
G17U A71U	0.443
G17C C61A	0.185
G17A C64G	0.496
A16U A77G	0.739
G17C G38A	0.0396

Variant	self-cleavage
G17C G38C	0.0831
G17C C64G	0.298
G17A G28C	0.0489
A16U C64A	0.743
G17A C63U	0.88
G17C G59A	0.231
G17A A43G	0.277
G17U A87U	0.548
G17U A87G	0.499
G17A U60G	0.712
A16U A78C	0.156
A16U C57A	1.17
G17A G55A	0.705
A16U U47C	0.72
G17A C32G	0.0415
G17A C32U	0.369
A16U U20A	0.0875
A16U G31C	0.0437
A16U C33G	0.166
A16U C33U	0.684
A16U C85A	1.1
A16U C85G	1.03
G17C C21U	0.0923

Source: the RNAGym collection of RNA variant scans (doi:10.7554/elife.80360)
